The target in this experiment is urinary IFNAB-BPII (human) (UniProt P48551). The experiment in a line: iRIA; control antibody (dilution 1:1) captured on goat anti-mouse F(ab)2, then 125I-IFNAB-BP.

The text below walks through data of patent US6458932 (YEDA RESEARCH AND DEVELOPMENT, dated 2002).

Chain of urinary IFNAB-BPII (human) (P48551 other isoform, or with tags, fused parts or gaps): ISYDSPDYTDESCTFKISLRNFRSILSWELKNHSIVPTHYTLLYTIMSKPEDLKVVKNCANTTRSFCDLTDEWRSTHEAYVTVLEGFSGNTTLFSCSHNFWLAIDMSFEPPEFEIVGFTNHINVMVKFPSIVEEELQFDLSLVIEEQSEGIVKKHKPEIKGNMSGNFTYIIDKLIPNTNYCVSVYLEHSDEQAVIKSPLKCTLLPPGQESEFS

Substance Control antibody had an iRIA - CPM of 20 cpm.
